Test: yeast display, Sf9 membrane polyspecificity reagent, FACS + sequencing; frameworks hold sequencing errors
Method in brief: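 In a synthetic yeast display library (Saccharomyces cerevisiae BJ5465), nanobody expression was induced with galactose for 36–48 hours. FACS gates were set low and high (top ~1%) using anti-HA fluorescence for expression and streptavidin fluorescence for binding of the Sf9 membrane reagent. Each polyreactivity label is drawn from the gate of origin.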
With “QVQLVESGGGLVQAGGSLRLSCAASGSTFTPYGMGWYRQAPGKERELVAAITVSGGRTYYADSVKGRFTISRDNAKNTVYLQMNSLKPEDTAVYYCAAVYLRGDGEYDYWGQGTQVTVSS” the “polyreactivity (PSR sort gate)” value was “low polyreactivity”.
For “QVQLVESGGGLVQAGGSLRLSCAASGSTFAYNDMGWYRLAPGKERELVADIRSGGNTNYADSVKGRFTISRDNAKNTVYLQMNSLKPEDTAVYYCATDGYRIDVYHPDYRYDYWGQGTQVTVSS”, the “polyreactivity (PSR sort gate)” value was “low polyreactivity”.
With “QVQLVESGGGLVQAGGSLRLSCAASGFTFVYYVMGWYRQAPGKERELVAAIRSGDGNTHYADTEKGRFTISRDNAKNTVYLQMNSLKPEDTAVYYCAASSRTFGYKYFYWGQGTQVTVSS” the “polyreactivity (PSR sort gate)” value was “high polyreactivity”.
In the case of “QVQLVESGGGLVQAGGSLRLSCAASGRTFGQYAMGWYRQAPGKEREFVAAITSSGGSTYYADSVNGRFTISRDNAKNTVYLLMNSLNPEDTAVYYCAAPISRSAGWDSYDYWGQGTQVTVSS”, the “polyreactivity (PSR sort gate)” value is reported as “low polyreactivity”.
For “QVQLVESGGGLVQAGGSLRLSCAASGSIFYPYAMGWYRKAPGKERELVASITINDGSTYYADSVKGRFTISRDNAKHTFYLPMNRLIQEDPAVYYCNVDPVPGFGSVYEYWGQGTQVTVSS”, the “polyreactivity (PSR sort gate)” value was “low polyreactivity”.
With “QVQLVESGGGLVQAGGSLRLSCAASGRIFKYYAMGWYRQAPGKERELVAAISRSGGSTYYADSVKGRFTISRDNAKKTVYLQMNSLKPEDTAVYYCAAGYKQATYDRIRTAYGYWGQGTQVTVSS” the “polyreactivity (PSR sort gate)” value was “high polyreactivity”.
In the case of “QVQLVESGGGLVQAGGRLSLSCAASGSIFSIYAMGWYRPSPGKERELVSGIRSTVSTNYADSVKGRFTISRDNAKNTVYLQMNSLKPEDTAVYYCATGTPTAPGNYWGQGTQVTVSS”, the “polyreactivity (PSR sort gate)” value is reported as “low polyreactivity”.
For “QVQLVESGGGLVQAGRSLRLICAASGSTFYVNAMGWYRQAPGKEREFVAAIRWPGGSTYYADSVKWRFTISRDNAKNTFYVQMNSLKPEDTAVFYCAARIKYRYVWGQGTQVTVSS”, the “polyreactivity (PSR sort gate)” value was “low polyreactivity”.
For “HVQLQEIGGGLVQAGDSQRLSCAASGNIFRFTDMGRYRQAPGKERELVAAINAGSTTYYAASVKGRFTISRDNAKNTVYLQMNSLKPEDTAVYYCNALYSYKYGRKYDYWGQGTQVTVSS”, the “polyreactivity (PSR sort gate)” value was “high polyreactivity”.
With “QVQLVESGGGLVQAGGSLRLSCAASGSTIATYTMGWYRQAPGKERELVAAISVSGSRTYYADSVKGRFTISRDNAKNTVYLQMNSLIPEDTAVYYCNADPPVKLYLYDYWGQGTQVTVSS” the “polyreactivity (PSR sort gate)” value was “high polyreactivity”.
With “QVQLVESGGCLVQAGGSLRLSCAASGSLFKPYAMGWYIQAPGKEREFVAAINRGGTSTYYADSVKGRFTIARDNAKNTVFLQMKSLKPEDTAVYYCNAESPYYADGDTVRDDYWGQGTQVTVSS” the “polyreactivity (PSR sort gate)” value was “low polyreactivity”.
In the case of “QVQLVESGGGLLQAGGSLRLSCAASGLTFSKNAMGWYRQATGKERELVATISYSSSRTNYADSVKGRFTISRDNAMNTVYLQMNFLKPEDTAVYYCAARVYKGWPTHYDYWGQGTQVTVSS”, the “polyreactivity (PSR sort gate)” value is reported as “high polyreactivity”.
In the case of “QVQLVESGGGLVQAGGSLRLSCAASGRIFNFYAMGWYRQAPGKERELVASITSGGRTSYADSVKGRFTISRDNAKNTVYLQMNSLKPEDTAVYYCAAKSPLKTYYFTSFRYYYWGQGTQVTVSS”, the “polyreactivity (PSR sort gate)” value is reported as “high polyreactivity”.
With “QVQLVESGGGLVQAGGSLRLSCAASGSTFQYNAMGGYRQAPGKERELVASISWSGGSTYYADSVKGRFTISRDNAKNTVYLQMNSLKPEVTAVYYCAADWSDQRDYWGQGTQVTVSS” the “polyreactivity (PSR sort gate)” value was “low polyreactivity”.
With “QVQLVESGGGLVQAVGSLRLSCAASGRILYWYAMGWYRQAPGKERELVAAINHGDTSTYYADSVKGRFTISRDNAKNTVYLQMNSLIPEDTAVYYCNVRSYVYSRWYQSTWGYYYWGQGTQVTVSS” the “polyreactivity (PSR sort gate)” value was “high polyreactivity”.
For “QVQLVESGGGLVQAGGSLRLSCAASGRIFLIYAMGWYRQAPGKDRELVAAISGRGGGTTYYADSVKGRFTISRDNAKITVYLQMNSLKPEATAVYYCAARNGGHKYYYWGQGTQVTVSS”, the “polyreactivity (PSR sort gate)” value was “high polyreactivity”.
For “QVQLVESGGGLVQAGGSLRLNCAASGSIFVLYAMGWYRQAPRKERELVAAIRSTGSTNYADSVKGRFTISRDNAKNTVYLQMNSLKPEDTAVYYCAAYRRRTYAVNKEGGYWGQGTQVTVSS”, the “polyreactivity (PSR sort gate)” value was “high polyreactivity”.
In the case of “QVQLVESGGGLVQAGGSLRLSCAASGSTFRYYVMGWYRQAPGKERELVARITSAASTNYADSVKGRFTISRDNAKNTVYLQMNSLNPEDTAVYYCAARKYGSRYRLKYDYWGQGTQVTVSS”, the “polyreactivity (PSR sort gate)” value is reported as “high polyreactivity”.
In the case of “QVQLVESGGGLVQAGGSLRLICAASGRIFHYYAMGWYRQAPGKERELVAAIRWSGGDTYYADSVKGRFTISRDNAKNTVYLQMNSLKPEDTAVYYCAAYDHVYEYDYWGQGTQVTVSS”, the “polyreactivity (PSR sort gate)” value is reported as “low polyreactivity”.
For “QDQLVESVVGLVQAGGSLRLSCAASGRIFEDYAMGWYRQAPGKERELVARICSGDSTNYADSVKGRFTISRDNAKNTVYLQMNSLKPEDTAVYYCAAEGGVQEFDFCGQGTQVTVSS”, the “polyreactivity (PSR sort gate)” value was “low polyreactivity”.
In the case of “QVQLVESGGGLVQAGGSLRLSCAATGRSFVHKAMGWYRQAPGKERELVAAISRGGSTYYADSVKGRFTISRDNAKNTVYLQMNSMKPEDTAVYYCAKERRYTGRRSYEFNYWGQGTHVTVSS”, the “polyreactivity (PSR sort gate)” value is reported as “low polyreactivity”.
In the case of “QVQLVESGGGLVQAGGSLRLSCAASGGTLYYYAMGWSRQAPGKERELVADITNSGSTNYADSVKGRFTISRDNAKNTVYLQMNSLKPEDTAVYYCAAYSWSWYHPEFDYWGQGTQVTVSS”, the “polyreactivity (PSR sort gate)” value is reported as “high polyreactivity”.
With “QVQLGESGGGLVQAGGSLRLSCAASGSIFTYNPMGWYRQAPGKERELVAAITIDDGSTYYADSVKGRFTISRDNAKNTVYLQMNSLKPEDTAVYYCAADFYGVSYSGGEMDYWGLGTQVTVSS” the “polyreactivity (PSR sort gate)” value was “low polyreactivity”.
For “QVQLVESGGGLVQAGGSLRLSCAASGSIFGRNAMGWYRQAPGKERELVAAISGRASSTFYADSVKGRFTISRDNAKNTVYLQMNSLKPEDTAVYYCAARNSYGGPTYEHYYWGQGTQVTVSS”, the “polyreactivity (PSR sort gate)” value was “high polyreactivity”.
With “QVQLVESGGGLVQAGGSLRLSCAASGRIFYHNAMGWYRQAPGKERELVAAISWSGGNTYYADSVKGRFTISRDNAKNTVYLQMNSLKPEDTAVYYCNRYWYRDRLWLYDYWGQGTQVTVSS” the “polyreactivity (PSR sort gate)” value was “high polyreactivity”.
With “QVQLVESGGGLVQAGGSLRLSCAAFGFTFNAYALGWYRQAPGKERELVAGITSSGGGTYYADSVKGRFTISRDNAKNTVYLEMNSLKPEDTAVYYCNTYSYLFSRYGYWGQGTQVTVSS” the “polyreactivity (PSR sort gate)” value was “high polyreactivity”.
In the case of “QVQLVESGGGLVQAGGSLRLSCAASGRTIWYYAKGWYRQAPGKERELVAAITRGGRTNYADSVKGRFTISRDNAKNTVDLQMNSLKPEDTAVYYCAADYRDPAHSYGYWGQGTQVTVSS”, the “polyreactivity (PSR sort gate)” value is reported as “high polyreactivity”.
With “QVQLVESGGGLVQAGGSLRLSCAASGSIFPLYDMGWYRLAPGKERELVAGITGSGGSTYYADSVKGRFTISRDNAKNTVYLQMNSLKPEDTAVYYCAADYSLYGWWFRNDYWGQGTQVTVSS” the “polyreactivity (PSR sort gate)” value was “low polyreactivity”.
For “QVQLVESGGGLVQAGGSLRLSCAASGSTFQSNGMGWYRQAPGKERELVAAITSTDASTSYADSVKGRFTISRDNAKNTVYLQMNSLKPEDTAVYYCAADFPVASGAELDYWGQGTQVTVSS”, the “polyreactivity (PSR sort gate)” value was “low polyreactivity”.
With “QVQLVESGGGLVQAGGSLRLSCAASGRIFKGYAMGWYRLAPGKERELVAAITSGGNTNYADSVKGRFTISRDNAKNTVYLQMNSLKPEDTAVYYCAARPRFVYSYPYYYWGQGTQVTVSS” the “polyreactivity (PSR sort gate)” value was “high polyreactivity”.
For “QVQLVESGRGLVQAGGSLRLSCAASGITFGWYAMGWYRQPPGKATELVASISSSGSTNYADSVKGRFTNSRDNAKNTVYLQMNSLKPEDTAVYYCNKDYLLRHYYIYVIEGDYWGQGTQVTVSS”, the “polyreactivity (PSR sort gate)” value was “low polyreactivity”.
In the case of “QDQLVESVGGLVQAGGSLRLSCAASGLTFEVYAMGWSRQAPGKDRELVAAISSGGRSTYYADSVKGRFTISRDNAKNTVYLQMNSRKPEDSAVYYCNAVAKLYYWRYDYWGQGTQVTVSS”, the “polyreactivity (PSR sort gate)” value is reported as “low polyreactivity”.
With “QVQLVESGGGLVQAGGSLRLSCAASGSIFNYNAMGWYREAPRKERELVAAITWRGGTTSYADSVKGRFSISRDNAKNTVYLQMNSLKPEDTAVYYCNAYQWRHRYTMYYWGQGTQVTVSS” the “polyreactivity (PSR sort gate)” value was “high polyreactivity”.
For “QFQLVESGGGLVQAGGSLRSSCAASGFIFREYAMGWYRQAPGKERELVAAISTSGGDTYYADSVKGRFTISRDNAKNTVYLQMNSLKPEDTAVYYCAAEYDGYWDSNRGNYWGQGTQVTVSS”, the “polyreactivity (PSR sort gate)” value was “low polyreactivity”.
In the case of “QVQLVESGGGLVQAGGSLRLSCAASGSTFYPYAMGWYRQAPGKERELVAGIRSGGSTNYADSVKGRFTISRDNAKNTVYLQMNSLKPEDTAVYYCAARRWRTQDRSHFDYWGQGTQVTVSS”, the “polyreactivity (PSR sort gate)” value is reported as “low polyreactivity”.
With “QVQLVESGGGLVQAGGSLRLSCAASGSIYAVYAMGWYRPAPGKERELVATISGRGGSTYYADSVKGRFTISRDNAKNTVYLQMNSLKPEDTAVYYCNARVLFRRERMDSWGQGTQVTVSS” the “polyreactivity (PSR sort gate)” value was “high polyreactivity”.
For “QVQLVESGGGLVQAGGILRLSCAAYGRTFYLYTMGWYRQEPGKERELVAAISRGGRTYADSVKGRFTISRDNAKNTVYLQMNSLKPEDTAVYYCADRGYFYYSRYDSWGQGTQVTVSS”, the “polyreactivity (PSR sort gate)” value was “low polyreactivity”.
In the case of “QVQLVESGGGLVQAGGSLRLSCAYSGRTICSNAMGWYRQAPGKESELVARIDSTYYADSVKGRFTISRDNAKNTVYLQMNSLKPEDTAVYYCAADAWDHWTWFYPTNGMDYWGQGTQVNVSS”, the “polyreactivity (PSR sort gate)” value is reported as “low polyreactivity”.
With “QVQLVESGGGLVQAGGSLRLSCAASGSTLVYYDMGWYRQAPGKERELVATITGTDSAYYAVSVKGRFTISRDNAMNTVYLQMNRLKPEDTADCAADRAASRADYEYWGQGTQVTVSS” the “polyreactivity (PSR sort gate)” value was “low polyreactivity”.
For “QFQLVESGGGLDQAGGSLRLSCAASGSIFWYYAMGWYRQAPGKERELVAAISISGSTYYADSVKGRFTISRDNAKNTVYLQMNSLKPEDTAVYYCAARKFFWRSNYDYWGQGTQVTVSS”, the “polyreactivity (PSR sort gate)” value was “low polyreactivity”.
For “QVQLQESAGGRQPAPELRGERLYFWLLLMGWYRQAPGEERELVAGINDGASTNYADSVKGRFTISRDNARNTVYLKMNSLKPGDTAVYYCAVWQPVLIWFYYWGQGTQVTVSS”, the “polyreactivity (PSR sort gate)” value was “high polyreactivity”.
For “QVQLVESGGGLVQAGGSLRLSCAASGRTLDWNAMGWYRQAPGKERELVAAISWSGDSTYYADSVKGRFTISRDNAKNTVYLQMNSLKPEDTAVYYCAARYGRSWGRGYGYWGQGTQVTVSS”, the “polyreactivity (PSR sort gate)” value was “low polyreactivity”.
For “QVQLVESGGGLVQAGGSLRLSCAACGRIFGGNTMGWYRQAPGKQRELVAAITVRGGSTYYADSVKGRFTISRDNAKNTVYLQMNSLKPEDTAVYYCAARRRIFPPRFGYWGQGTQVTVSS”, the “polyreactivity (PSR sort gate)” value was “high polyreactivity”.

Reference: the nanobody polyreactivity screen of Harvey et al. (2022)
